Data reported in US8058046B2, “Sesquiterpene synthases from patchouli” (Firmenich SA, priority 2003, dated 2011).

Experiments:
[1] = Enzyme assay: conversion of FPP to sesquiterpenes by recombinant sesquiterpene synthase, GC / GC-MS analysis; format: biochemical; details: FPP as substrate; for main (major) sesquiterpene product formed: crude protein extract from E. coli expressing the recombinant synthase, GC-MS and retention index
Protocol: In a standard protein expression experiment, the expression plasmids containing the sesquiterpene synthase cDNAs as well as the empty plasmid (for negative control) were transformed into the BL21(DE3) or the BL21 STAR™ (DE3) E. coli cells (Novagen). Single colonies of transformed E. coli were used to inoculate 5 ml LB medium. After 5 to 6 hours of incubation at 37° C., the cultures were transferred to a 20° C. incubator and left 1 hour for equilibration. Expression of the protein was then induced by addition of 0.5 mM IPTG and the culture incubated over-night at 20° C. The next day, the cells were collected by centrifugation, resuspended in 0.5 ml Extraction Buffer (50 mM MOPSO pH 7, 5 mM DTT, 10% glycerol) and sonicated 3 times 30 s. The cell debris were sedimented by centrifugation 30 min at 18,000 g and the supernatant containing the soluble proteins was recovered. The expression of the sesquiterpene synthases was evaluated by separation of the protein extract on a SDS-PAGE, staining with coomassie blue and comparison to protein extract obtained from cells transformed with the empty plasmid.
The enzymatic assays were performed in Teflon sealed glass tubes using 50 to 100 μl of protein extract in a final volume of 1 mL Extraction Buffer supplemented with 15 mM MgCl2 and 100 to 250 μM FPP (Sigma). The medium was overlaid with 1 ml pentane and the tubes incubated over-night at 30° C. The pentane phase, containing the sesquiterpenes, was recovered and the medium extract with a second volume of pentane. The combined pentane fractions were concentrated under nitrogen and analyzed by Gas Chromatography on a on a Hewlett-Packard 6890 Series GC system using a 0.25 mm inner diameter by 30 m SPB-1 (Supelco) capillary column. The carrier gas was He at constant flow of 1.6 ml/min. Injection was done in splitless mode with the injector set at 200° C. and the oven programmed from 100° C. (0 min hold) at 7.5° C./min to 200° C. (0 min hold) followed by 20° C./min to 280° C. (2 min hold). Detection was made with a flame ionization detector. Compound identification was based on retention time identity with authentic standards when available. For confirmation of the products identities, samples were analyzed by combined capillary GC-MS using a Hewlett-Packard 6890 GC-quadrupole mass selective detector system, equipped with a 0.25 mm inner diameter by 30 m SPB-1 (Supelco) capillary column. The oven was programmed from 80° C. (0 min hold) to 280° C. at 7° C. at a constant flow of 1.5 ml/min He. The spectra were recorded at 70 eV with an electron multiplier voltage of 2200V. Retention time of the enzyme products were compared to the retention time of authentic standard, or the Kovats retention index was calculated and compared to published data (Joulain, D., and König, W. A. The Atlas of Spectral Data of Sesquiterpene Hydrocarbons, EB Verlag, Hamburg, 1998).
For the biochemical characterization of the sesquiterpene synthases for which the full-length cDNA was isolated, the cDNA was ligated into appropriate expression plasmids. This plasmid were used to transform E coli cells and after expression of the recombinant proteins, the E coli proteins were extracted and used to evaluate the biochemical conversion of FPP to sesquiterpene compounds (see Examples 5 and 6).

[2] = test system: BL21 (DE3) E. coli cells; assay: In vivo sesquiterpene production assay in E. coli from the endogenous FPP pool; format: cell-based; details: E. coli cells expressing the synthase, 24 hours after 1 mM IPTG, pentane extract, GC / GC-MS; none with empty plasmid
Protocol: Experiments were performed using E. coli, to test the ability of the patchoulol synthase to synthesise, in vivo, sesquiterpenes from the endogenous FPP pool. Typical experiments for evaluation of in vivo sesquiterpene production are performed as follows. The expression plasmid containing the sesquiterpene synthase cDNA are transformed in BL21 (DE3) E. coli cells. Single colonies of transformed cells are used to inoculate 5 mL LB medium supplemented with the appropriate antibiotics. After 5 to 6 hours of incubation at 37° C., the culture were use to inoculate 100 ml TB medium supplemented with the appropriate antibiotics and the culture was incubated for 2 hours at 20° C. in a 250 mL shake flask. After 2 hours incubation, expression of the protein was induced by the addition of 1 mM IPTG. The cultures were left 24 hours and were then directly extracted twice with one volume of pentane. The two solvent fractions were recovered, combined and concentrated to 0.5 mL prior to GC-MS analysis. […] Patchoulol could be clearly detected by GC analysis of the culture extract, and no patchoulol was detected with cells transformed with the empty plasmid. The identity of the product could be confirmed by GC-MS, but the amount of sesquiterpene produced was relatively low and estimation of the quantities was not possible.

[3] = estimated by GC (flame ionization detection)

B1: PatTpsA: recombinant γ-curcumene synthase from patchouli (Pogostemon cablin), cDNA SEQ ID NO:1 (protein)
chain: MAAFTANAVDMRPPVITIHPRSKDIFSQFSLDDKLQKQYAQGIEALKEEARSMLMAAKSAKVMILIDTLERLGLGYHFEKEIEEKLEAIYKKEDGDDYDLFTTALRFRLLRQHQRRVPCSVFDKFMNKEGKFEEEPLISDVEGLLSLYDAAYLQIHGEHILQEALIFTTHHLTRIEPQLDDHSPLKLKLNRALEFPFYREIPIIYAHFYISVYERDDSRDEVLLKMAKLSYNFLQNLYKKELSQLSRWWNKLELIPNLPYIRDSVAGAYLWAVALYFEPQYSDVRMAIAKLIQIAAAVDDTYDNYATIREAQLLTEALERLNVHEIDTLPDYMKIVYRFVMSWSEDFERDATIKEQMLATPYFKAEMKKLGRAYNQELKWVMERQLPSFEEYMKNSEITSGVYIMFTVISPYLNSATQKNIDWLLSQPRLASSTAIVMRCCNDLGSNQRESKGGEVMTSLDCYMKQHGASKQETISKFKLIIEDEWKNLNEEWAATTCLPKVMVEIFRNYARIAGFCYKNNGDAYTSPKIVQQCFDALFVNPLRI
modifications: Pogostemon cablin
main (major) sesquiterpene product formed [1]: γ-curcumene | sesquiterpene synthase activity in recombinant E. coli protein extract ([1]; crude protein extract): low

B2: PatTps177: recombinant patchoulol synthase from patchouli, cDNA SEQ ID NO:5 (protein)
chain: MELYAQSVGVGAASRPLANFHPCVWGDKFIVYNPQSCQAGEREEAEELKVELKRELKEASDNYMRQLKMVDAIQRLGIDYLFVEDVDEALKNLFEMFDAFCKNNHDMHATALSFRLLRQHGYRVSCEVFEKFKDGKDGFKVPNEDGAVAVLEFFEATHLRVHGEDVLDNAFDFTRNYLESVYATLNDPTAKQVHNALNEFSFRRGLPRVEARKYISIYEQYASHHKGLLKLAKLDFNLVQALHRRELSEDSRWWKTLQVPTKLSFVRDRLVESYFWASGSYFEPNYSVARMILAKGLAVLSLMDDVYDAYGTFEELQMFTDAIERWDASCLDKLPDYMKIVYKALLDVFEEVDEELIKLGAPYRAYYGKEAMKYAARAYMEEAQWREQKHKPTTKEYMKLATKTCGYITLIILSCLGVEEGIVTKEAFDWVFSRPPFIEATLIIARLVNDITGHEFEKKREHVRTAVECYMEEHKVGKQEVVSEFYNQMESAWKDINEGFLRPVEFPIPLLYLILNSVRTLEVIYKEGDSYTHVGPAMQNIIKQLYLHPVPY
modifications: Pogostemon cablin
amount of (+)-germacrene A among sesquiterpenes produced ([1]; estimated by GC (FID), detected as the thermal rearrangement product β-element): 1.6% | amount of (Z,E)-α-farnesene among sesquiterpenes produced [1, 3]: 1.35% | amount of (trans)-alpha-farnesene among sesquiterpenes produced [1, 3]: 3% | amount of (−)-patchoulol among sesquiterpenes produced [1, 3]: 39.1% | amount of alpha-guaiene among sesquiterpenes produced [1, 3]: 14% | amount of alpha-humulene among sesquiterpenes produced [1, 3]: 1.1% | amount of seychellene among sesquiterpenes produced [1, 3]: 4% | amount of trans-β-caryophyllene among sesquiterpenes produced [1, 3]: 4.5% | amount of trans-β-farnesene among sesquiterpenes produced [1, 3]: 3% | amount of α-bulnesene among sesquiterpenes produced [1, 3]: 8.6% | amount of α-patchoulene among sesquiterpenes produced [1, 3]: 8.9% | amount of γ-patchoulene among sesquiterpenes produced [1, 3]: 2.5% | amount of δ-patchoulene among sesquiterpenes produced [1, 3]: 2.1% | main (major) sesquiterpene product formed [1]: (−)-patchoulol | number of other sesquiterpenes produced besides the main product ([1]; crude protein extract, GC-MS): at least 18 | in vivo production of patchoulol from endogenous FPP [2]: produced patchoulol

B3: PatTpsBF2: recombinant (−)-germacrene D synthase from patchouli, cDNA SEQ ID NO:2 (protein)
chain: MELKNQSVAIISSNASRPLAHYHPDVWGDRFLLYKPNPSSEAGQKPVIEELKQQVRSELKEASNDYMRQLKMVDAIQRLGIESLFEEDIDNALKNLSENFDDYCKDKHDLYAIALSFRLLRQHGYRISCDVFDKLKDGEDGFKVPPSDEALAVVELLEATHLRIHGEVVLDRAFVFARIHLESIEANLNNPVAKQVHNALYGYSNRRGMQQVEARKYIPIYEQYASHHQGLLKLATLNFNLQQTMHKRELSELSRWYRDLEVPTMLPFARQRLVETYFWDAGVVFEPENDVARMILVKVQCLISFLDDTFDAYGSFEELQLFTDAINTWDVSCLDQLPDYMKIIYKALLGVFEVIEKLMIKQGTLYRLNYAKEAMKIVVGGYFVEAKWREEKSKPTTQEYMQVATKSAGYMTLIITSFLGMEANIATKEAFDWVLSEPDVMKAAITLARLTNDIVGIELEKERKHIATAVEVYEDEHKLSMQEAMVEIKNQIESGWKTINEAFLRPTKFPTPILYRILNYCRVLEVIYDKSDRYTHVDPALQDIIKQLYIHPIP
modifications: Pogostemon cablin
main (major) sesquiterpene product formed [1]: (−)-germacrene D | sesquiterpene synthase activity in recombinant E. coli protein extract ([1]; crude protein extract): could be detected

B4: PatTpsB15: another recombinant (−)-germacrene D synthase from patchouli, cDNA SEQ ID NO:4 (protein)
chain: MDLNEITSSSRPLANYHPNVWGDRFLLHEPEFTCQAGEKQLVEELKEEVRRELKEASNDYLRQLKMVDAIQRLGIEYLFEEEIDEALRNLLAKFENYCKDNHDMYATALSFRLLRQHGYKVSCEVFDKFKDGEDGFKVEEVMAVLELFEATHMRIHGEDVLDQAFVFTRNYLQSIHATLSNPIAKQVHNALNGYSCRRGMPRIEARKYIPIYEEYGCHHKALLKLAKLDFNLLQSMHKRELTQLYRWWKDLEMPTKLPYIRDRLVETYFWDMGFYFEPQYALARNILVKVQCLVSIFDDTFDAYGAFKELQLFKDAIDRWSISCLDELPEYMQIIYKLVLDVFEEIESHMIKQGTSYRLDYAREAIKIVIGGYFDEAKWREEEYKPRMEEYMKVATKSAAYLTLIIVSFVGMKNDIATPQAFQWVLSEPQIITASLALARLSNDLVGIEFEKERKYIATAVELYEEEHKVSKEEAVLELRHETESAWKEINEALLEPTTFATPILDRILNSARVLEVFYDKTDRYTHVDLELQNIIAQLYIHPIP
modifications: Pogostemon cablin
main (major) sesquiterpene product formed [1]: (−)-germacrene D | sesquiterpene synthase activity in recombinant E. coli protein extract ([1]; crude protein extract): relatively good metabolization of FFP

B5: PatTpsCF2: recombinant (+)-germacrene A synthase from patchouli, cDNA SEQ ID NO:3 (protein)
chain: MAVQISETVRPFANFSPNPSLWGDQFINHKSKTQQISRIYLEEIEGLKNEVKCMLTSTPEGKMADTVNLIDTLERLGVSYHFEKEIEEKMKHLFNLIKADNYKDHEGCDLYTDALHFRLFRQHGYPISSGIFNKWMDGNGKFKESIKSDAKGLLSLYEACCLRTHGDTLLDEALVFATASLKSMAANLASPLRKQVEHALFQHLHFGIPRVEARHFITFYEEEEHKNEMLLRFAKLDFNALQALHKEELSEISKWWKDLDLISKLPYARDRVVESYFWAVGVYYQPKYSRARIMLTKTIAMTAILDDTYDSYGTLEELDVLTKAIERWDIKEINGLPEYIKGFYKQVLKLYQQLEEELAKEGRSYAVYYAIEACKELARSYAVEAKWFKKGYLPGFEEYLINSLVTSTAGYLNIISFFGVESVTKEDFEWFSKKPRIAVATQIITRVIDDIATYEVEKEKGQSATGIDCYMKEHGVSKEKAMQRFYEMSTNAWKDINEEGLSWPSSFSRDIFVQLRNFSRMVDVTYGKNEDGYSKPEKILKPLIIALFVDQIKL
modifications: Pogostemon cablin
main (major) sesquiterpene product formed [1]: (+)-germacrene A | sesquiterpene synthase activity in recombinant E. coli protein extract ([1]; crude protein extract): easily detected
